B1: Id_ii_S1_P3E.2_K3.1_C3.2_[T-1A]_H3.1_A3.1_F3.1_T3.2_[T9A] (ssRNA)
RNA: UCUCUUCAUGUAUAUAAAUCUCUU
B2: Id_ii_S1_P3E.2_K3.1_C3.2_[T-1G]_H3.1_A3.1_F3.1_T3.2_[A10C] (ssRNA)
RNA: UCUCUUCGUGUAUAUAUCUCUCUU
B3: Id_ii_S1_P3E.3_K3.2_C3.2_[C-2G]_[T-1C]_H3.2_A3.1_F3.1_T3.2_[A10G] (ssRNA)
RNA: UCUCUUGCUAUAUAUAUGUCUCUU
B4: Id_ii_S1_P3E.2_K3.1_C3.2_[T-1C]_H3.1_A3.1_F3.1_T3.2_[T9C]_[A10G] (ssRNA)
RNA: UCUCUUCCUGUAUAUACGUCUCUU
B5: Id_ii_S1_P3E.2_K3.1_C3.2_[T-1A]_H3.1_A3.1_F3.1_T3.2_[A10C] (ssRNA)
RNA: UCUCUUCAUGUAUAUAUCUCUCUU
B6: Id_ii_S1_P3E.2_K3.1_C3.2_H3.1_A3.1_F3.1_T3.2_[A10T] (ssRNA)
RNA: UCUCUUCUUGUAUAUAUUUCUCUU
B7: Id_ii_S1_P3E.2_K3.1_C3.2_[T-1G]_H3.1_A3.1_F3.1_T3.2_[T9G]_[A10T] (ssRNA)
RNA: UCUCUUCGUGUAUAUAGUUCUCUU
B8: Id_ii_S1_P3E.2_K3.1_C3.2_[T-1G]_H3.1_A3.1_F3.1_T3.2_[T9A]_[A10T] (ssRNA)
RNA: UCUCUUCGUGUAUAUAAUUCUCUU
B9: Id_ii_S1_P3E.2_K3.1_C3.2_H3.1_A3.1_F3.1_T3.2_[T9G]_[A10T] (ssRNA)
RNA: UCUCUUCUUGUAUAUAGUUCUCUU
B10: Id_ii_S1_P3E.2_K3.1_C3.2_[T-1A]_H3.1_A3.1_F3.1_T3.2_[T9A]_[A10T] (ssRNA)
RNA: UCUCUUCAUGUAUAUAAUUCUCUU
B11: Id_ii_S1_P3E.2_K3.1_C3.2_[T-1C]_H3.1_A3.1_F3.1_T3.2_[T9C]_[A10C] (ssRNA)
RNA: UCUCUUCCUGUAUAUACCUCUCUU
B12: Id_ii_S1_P3E.3_K3.2_C3.2_[C-2G]_[T-1C]_H3.2_A3.1_F3.1_T3.2_[A10C] (ssRNA)
RNA: UCUCUUGCUAUAUAUAUCUCUCUU
B13: Id_ii_S1_P3E.2_K3.1_C3.2_[T-1C]_H3.1_A3.1_F3.1_T3.2_[A10C] (ssRNA)
RNA: UCUCUUCCUGUAUAUAUCUCUCUU
B14: Id_ii_S1_P3E.3_K3.2_C3.2_[C-2G]_H3.2_A3.1_F3.1_T3.2_[T9A] (ssRNA)
RNA: UCUCUUGUUAUAUAUAAAUCUCUU
B15: Id_ii_S1_P3E.2_K3.1_C3.2_[T-1C]_H3.1_A3.1_F3.1_T3.2_[A10T] (ssRNA)
RNA: UCUCUUCCUGUAUAUAUUUCUCUU
B16: Id_ii_S1_P3E.2_K3.1_C3.2_H3.1_A3.1_F3.1_T3.2_[T9A] (ssRNA)
RNA: UCUCUUCUUGUAUAUAAAUCUCUU
B17: Id_ii_S1_P3E.3_K3.2_C3.2_[C-2G]_H3.2_A3.1_F3.1_T3.2_[T9A]_[A10T] (ssRNA)
RNA: UCUCUUGUUAUAUAUAAUUCUCUU
B18: Id_ii_S1_P3E.2_K3.1_C3.2_[T-1A]_H3.1_A3.1_F3.1_T3.2_[A10T] (ssRNA)
RNA: UCUCUUCAUGUAUAUAUUUCUCUU
B19: Id_ii_S1_P3E.2_K3.1_C3.2_[T-1G]_H3.1_A3.1_F3.1_T3.2_[T9C]_[A10C] (ssRNA)
RNA: UCUCUUCGUGUAUAUACCUCUCUU
B20: Id_ii_S1_P3E.3_K3.2_C3.2_[C-2G]_H3.2_A3.1_F3.1_T3.2_[T9C]_[A10T] (ssRNA)
RNA: UCUCUUGUUAUAUAUACUUCUCUU
B21: Id_ii_S1_P3E.2_K3.1_C3.2_[T-1C]_H3.1_A3.1_F3.1_T3.2 (ssRNA)
RNA: UCUCUUCCUGUAUAUAUAUCUCUU
B22: Id_ii_S1_P3E.2_K3.1_C3.2_[T-1G]_H3.1_A3.1_F3.1_T3.2 (ssRNA)
RNA: UCUCUUCGUGUAUAUAUAUCUCUU
B23: Id_ii_S1_P3E.3_K3.2_C3.2_[C-2G]_H3.2_A3.1_F3.1_T3.2_[T9G]_[A10T] (ssRNA)
RNA: UCUCUUGUUAUAUAUAGUUCUCUU
B24: Id_ii_S1_P3E.3_K3.2_C3.2_[C-2G]_H3.2_A3.1_F3.1_T3.2_[T9C]_[A10G] (ssRNA)
RNA: UCUCUUGUUAUAUAUACGUCUCUU
B25: Id_ii_S1_P3E.2_K3.1_C3.2_[T-1A]_H3.1_A3.1_F3.1_T3.2_[T9G]_[A10C] (ssRNA)
RNA: UCUCUUCAUGUAUAUAGCUCUCUU
B26: Id_ii_S1_P3E.3_K3.2_C3.2_[C-2G]_[T-1A]_H3.2_A3.1_F3.1_T3.2_[T9A]_[A10T] (ssRNA)
RNA: UCUCUUGAUAUAUAUAAUUCUCUU
B27: Id_ii_S1_P3E.2_K3.1_C3.2_[T-1C]_H3.1_A3.1_F3.1_T3.2_[A10G] (ssRNA)
RNA: UCUCUUCCUGUAUAUAUGUCUCUU
B28: Id_ii_S1_P3E.2_K3.1_C3.2_H3.1_A3.1_F3.1_T3.2_[A10G] (ssRNA)
RNA: UCUCUUCUUGUAUAUAUGUCUCUU
B29: Id_ii_S1_P3E.2_K3.1_C3.2_[T-1C]_H3.1_A3.1_F3.1_T3.2_[T9C]_[A10T] (ssRNA)
RNA: UCUCUUCCUGUAUAUACUUCUCUU
B30: Id_ii_S1_P3E.3_K3.2_C3.2_[C-2G]_[T-1A]_H3.2_A3.1_F3.1_T3.2_[T9G]_[A10C] (ssRNA)
RNA: UCUCUUGAUAUAUAUAGCUCUCUU
B31: Id_ii_S1_P3E.3_K3.2_C3.2_[C-2G]_[T-1C]_H3.2_A3.1_F3.1_T3.2_[T9C]_[A10T] (ssRNA)
RNA: UCUCUUGCUAUAUAUACUUCUCUU
B32: Id_ii_S1_P3E.2_K3.1_C3.2_[T-1A]_H3.1_A3.1_F3.1_T3.2_[T9A]_[A10C] (ssRNA)
RNA: UCUCUUCAUGUAUAUAACUCUCUU

Each binder was assayed against T1, PUF4 RNA-binding domain (Saccharomyces cerevisiae, UniProt P25339 537-888) (assay: Mg; RNA-MaP; 20 mM Na-HEPES pH 7.4, 30 mM KOAc, 0.75 mM MgCl2, 0.1% Tween-20, 5% glycerol, 0.1 mg/mL BSA, 2 mM DTT; 25 C; 0.0125-409.6 nM protein). Settings: tags: N-His6-TEV cleaved; C-SNAP kept, Cy3B-labelled; label: tethered on chip by stalled RNA polymerase.
T1 sequence: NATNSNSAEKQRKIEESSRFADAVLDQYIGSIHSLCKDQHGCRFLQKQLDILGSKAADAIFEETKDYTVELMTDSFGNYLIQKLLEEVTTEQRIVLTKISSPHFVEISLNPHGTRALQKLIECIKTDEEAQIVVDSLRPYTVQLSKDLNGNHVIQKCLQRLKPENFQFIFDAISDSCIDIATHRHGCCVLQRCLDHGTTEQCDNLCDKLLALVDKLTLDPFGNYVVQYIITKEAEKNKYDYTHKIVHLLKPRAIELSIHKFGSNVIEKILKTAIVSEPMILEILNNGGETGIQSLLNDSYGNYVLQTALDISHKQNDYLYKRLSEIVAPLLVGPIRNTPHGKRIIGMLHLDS

Binder	Kd
B1	13.1 nM
B2	7.58 nM
B3	754 nM
B4	17.4 nM
B5	8.05 nM
B6	5.12 nM
B7	3.77 nM
B8	8.53 nM
B9	3.72 nM
B10	11.6 nM
B11	24.3 nM
B12	545 nM
B13	4.74 nM
B14	50 nM
B15	5.94 nM
B16	8.21 nM

Binder	Kd
B17	44.6 nM
B18	8.07 nM
B19	17.5 nM
B20	51.5 nM
B21	3.76 nM
B22	5.37 nM
B23	12.1 nM
B24	55.2 nM
B25	5.33 nM
B26	1040 nM
B27	7.59 nM
B28	12.2 nM
B29	6.95 nM
B30	500 nM
B31	853 nM
B32	16.9 nM

— article PMC9352680, “A comprehensive thermodynamic model for RNA binding by the Saccharomyces cerevisiae Pumilio protein PUF4”
